# In patent publication US20210308031:
# Legend:
# [1] = system: (Pro-Pro-Gly)10 peptide model substrate
# [2] = system: Unhydroxylated collagen purified from strain PP434 (vector MMV411)
substance,measurement,setting,value
"AB fusion protein with the His tag (P4HA1 at the N-terminus, GSGSGS linker, P4HB at the C-terminus, six histidines), encoded by plasmid MMV502",alpha-ketoglutaric acid consumption over time,[1],there was less a ketoglutaric acid in the sample with the AB fusion protein than the sample with native P4HA and P4HB proteins
same,"% Hydroxyproline (in vitro hydroxylation, 5 uM enzyme, 2 uM collagen, 32 C, 1 hour); enzyme from strain PP547",[2],34.8%
same,"% Hydroxyproline (in vitro hydroxylation, 5 uM enzyme, 2 uM collagen, 32 C, 1 hour); enzyme from strain PP635",[2],26.6%
